This passage reports protein production results from a protein production outcome set (Wang et al. 2014).

A short description of the series: label from the status in PepcDB records.
As to “MTPAELISRLEEAWLNEKFSPELLENKSELVECVMEQLTHMEENLQRVRKGDLKASVHRMEIDRIRFVLSSFLRSRLKKIEKFFPHVLEKEKSRADGDPSFLSPEEFAFAKEYLANTEVYLRAVALKHMPPNLQSVDMMKAVPEPCLDSFVFLRVKEKQENILVEPETDEQREYVVDLDEGSQHLMRYRTIAPLVASGAVQLI”, the protein production result is “failed”.
As for “MIRSIVCTQRLIHRIMYTSARKYFIQFAIVAFVLGFIPTLYFIHAASQLETQAVSSVEKQTRLQLEFSQHDLLRMLESTHQATQLLAKNDLLFTAVTTPSKEALSQLKTLWDVTLRSQAIFSSFRLLDRQGKEQLKAIYDGHQVTFVESAQTTDPFSQQIVAQYAQLTTPQVWATQVAMSADTPSGMLPTFRFVTGIEHQGQRQGFLVVTVKLQSLYQRLSFIYDQFDSPDILNSAGELLLSEHKPSGTRSTSSLHFSAQHPELWQKIQLNQQGFALSNQTWFSYIKVDLSSVLPDFKPLVLVLRINKAEIDKTYANARWALMSQAVTVLSLLSIIAAGFAAWNINHLKNSLDSKLARAAMDGMSAVVITDRQNRIIKVNNEFTRLSGYTFEDVKGKQPSIFASGLHKVEFYMQMWKALQDNGVWEGEVINKRKDGESITEILRIQSIRDEDNVIQFYVASFVDISHRKALENRLRELSEKDALTDLWNRRKFDQTISLECAKRRRYPDQAQSCLAIIDIDHFKRINDKFGHNEGDLVLRTVAKGIQDQLRESDFIARIGGEEFAIIFPYTSIEEAEQVLNRVRLHIASLHHQQVTLSGGVTDVCTSPDQSYKRADLALYESKTSGRNQISVLTAMEMHHFA”, the protein production result is given as “failed”.
On to “LRSPRLYTHRLILRPWLVQDRARFAELNADPLVMEFFPSCLDRAQSDALLRRIDAHFAEHGFGWWALQVKGGDPFIGYVGLEVVDFDAPFVPAVAIGWRLAAEHWAEGFAHEAAEAALSYAFDTLGLDQVVAFTVPANENSLGLMERLGMHRDPTDDFEHPDLPPGHRLRHHVLYRLTREDWLRR”, for which the protein production entry is on record as “not failed”.
The same measure for “MKKIRLSKFIKMIVVILFLISVAASFYFFHVAQVRDDKSFISNGQRKPGNSLYAYDKSFDKLLKQKIEMTNQNIKQVAWYVPAVKKTHKTAVVVHGFANSKENMKAYGWLFHKLGYNVLMPDNIAHGESHGQLIGYGWNDRENIIKWTEMIVDKNPSSQITLFGVSMGGATVMMASGEKLPSQVVNIIEDCGYSSVWDELKFQAKEMYGLPAFPLLYEVSTISKIRAGFSYGQASSVEQLKKNNLPALFIHGDKDNFVPTSMVYDNYKATAGKKELYIVKGAKHAKSFETEPEKYEKRISSFLKKYEK”: “failed”.
“MGFSKVPLIWLCHPKIIAIDSKHVEVRIPLRRRTKNHLNSMYFGALAVGADVAGGFLAMSKAQEKGEAISLAFKGVKAEFLKRPEADVHFVCNDGHVIDEMLDHTIATGERVNRDVKIIALCPSLHGQEPMAEFALTLSLEHHHHHH”: the protein production entry is “failed”.
With “MNHLKKLVSILICTLLIVSLLPFSVWADSQERDGTDVEEITTKEKVTQETTSNETTSEPLKGTTVNKAINAKSFPTGNYSGDFSINSQKDVIESGQTVNYNIYLKITGPNTRYQNAKLVINLPKNGEFNQSLNELKIAGATPSYNKTTRQLVYTYQTLNSGVVDKVILKMTTKNGYTPNGTKLVVTGELSADNLSEKVTEQAETTVNATATTALSNDFTKVENSINNNPSQGDIGIWSFNLNIPKKSTGSLFMEEGKKIVIEYTLADKLDYLGVAGDTPEPTKVEGQKLTWEIAAPTYLEQEKANSLLNKTFQIRTFFQPTIPNFATVENKAVATTNFVTLTDSIVDTSKASVSVSASDPATIPPTIGSVYAPAHRGPVDANWGIATVTGNPDIKVYDTAKLGFSLMLNSAMNDSPWYDFLYYDAYYNIDDNLNLDYFRSGDFYFKPNVNYPGWAQLKKSPKYNLLVKYDGDTDWTTLKEDVELSKMYSRKDLGIPDDKHVSKVWLHFTYAPAGMYAADLSFFTTVKEGYVGEVRNSTQINMYGADSQDYIHYYDDTNPWPEAWKNYAGDRTAQIIPQPTGKNKFVQGSVVFDDTDGNLINIGDNSISVNLESNKASISRLKGPFEAMVLLPSGVKMKNTEQNGFKVTVLNENYQNAGRQLLKVKWDKKTLLPAEKLTAKINVSVAKDTPSNMTVEMFGFLQDTDFNVPEVSGTPTISDTKMEIDSNDINQNGNSEESRITSGNHYILNTSNHLKISKKAKGNRDKEYSGLANATTNSIVSYQLSLENDSDEKIANMVLMDVLPSENDLGITDNSERGSKFNLALTKAVEVPKEWKDKVEVTYSTAKNPKRAGILDKHTIYPIGTEPLVDNTEATQADWLTASEVKDWSNIYSFKIELKEGIEWIPGKSMKIQFDLKTPKKNQIDKTLLKQQTKKEDRAAWNSFAVAVNNSQVIEPAQVGVALDDSVAPVTVQYVDQNHKQIASPETLTGAYGEKFTAKQKKINNYSLVKIPANVSGTFNEKAQTITFIYQKVTAGRIIVNYVDKNGEKIADSIVLNGKLNSSYTTSSKKISGYKLYQTPKNATGKFLNTSQTVTYVYERTSNLSISSSNKGTENVKKLAKLPHTGDSTTTNLWVIIGLFMLSGAFVIMKKR” the entry was “failed”; with “MPAGLVISAPASGVGKTTLTLALARAWRNRGLSVQCFKSGPDYIDPAFHAAATGRASVNVDSWAMDRGGIAHLVGRGADADVVLAEGSMGLFDGVAARGVSGTGATADIAEMLGWPVLLVIDPSGQAQTAAAIAAGLRDYRPGVRLAGVVLNRVASPRHEDLVRRALDDAGIAVFGALPRHAEISLPKRHLGLVQAEEQAEIGKLIDEAARFVAEHVDLDAVLQSAAAWAPQPAANGLNVTPPGQRIALARDAAFSFVYPHMLEAWRAAGADISTFSPLADEAPDASADVCWLPGGYPELHAGKIAANARFCSGLRAFAETRPVHGECGGYMVLGTALTDADGVRHEMAGLLGLETSFAKRRMHLGYRLAELAAPMPGHSPGARLRGHEFHYSTIAAQPDMPLAVVHDATGAVIAETGSRRGNATGTFFHLIAEDRLEHHHHHH”, “not failed”.
Turning to “RPAVFPRMGVLPARVALLGQGQHWGVDFCLNVFRANFAEDREIQSEDVVRDLLRAQDLDADALIAQARQESTKEALRKQVDRARALGIFGAPTFMVDGEMFWGNDRLEDALA”, the protein production result is reported as “failed”.
With “MINMKVAISMDVDKISNSFEDCKYFLIVRIDDNEVKSTKVIFNDESGKKSIVKENVNAIICKNISEENYKKFSKKIEIYHAEGDDVDKNISLFIEGELSKISNP” the entry was “not failed”.
The same measure for “MAPRTNRPRTNRPRTGRPPAPDAPAAPDAPTAPDARRRRLPMRFLLPSLLLLAVMAMLMLRGFVHSEILADHRIRPPAATDQVPEKILDGGPVIDTRGGRTTSLSLPDHRLVLTFDDGPDPQWTPKVLDVLKKHHAHAVFFVTGTMTSRHPDLVRRLVAEGHEVGVHTFNHPDLAYQSKKRIDWELSQNQLALAGAAGIRTSLFRPPYSSFADAMDNESWPVTEYIGTRGYITVVNNTDSEDWQKPGVDEIIRRATPRGGKGAVVLMHDSGGDRHQTVQALDRFLPELQRRGYEFENLSEALGAPSAHTPVTGVDRWKGNAWIFLVQAADRITGMLVVGLAVIGGLVLTRFGLMLLLSGTHARRVRRPDFRWGPAPVTEPVSVLVPAYNEAKCIENTVRSLTASEHPVEVIVVDDGSSDGTARLVESLRLPDVRVVRQHNAGKPAALNRGLANARHDLIVMMDGDTVFEPATVRELVQPFADPRVGAVAGNAKVGNRDSLIGAWQHIEYVMGFNLDRRMYDLLRCMPTIPGAVGAFRRSALERVGGMSDDTLAEDTDITMALHRDGWRVVYAEKARAWTEAPESVQQLWSQRYRWSYGTMQAIWKHRRALVERGPSGRFGRVGLPLVALFMVVAPLLAPLIDVFLLYGVIFGPTQKTVLAWLGVLAVQAVCAAYAFRLDRERMTHLVSLPLQQILYRQLMYVVLLQSWITALVGGRLRWQKLRRTGVVEAPGSIPQQRTAGSESERRPVG”: “failed”.
The same measure for “MKFSKLADQVWGEEPDDQVRSFVFMSNLDAQETANTMDVSVSVERIHADLCGNTELASELHYTPDEWDEAQGWVKINYPLIDDTASASLDVVLDATFQPLPGQPFEGEALTLIDALLHHAENVAASNPWKRTTFHTAHMHPPGSNADCDYCLVLQRRGYVKAHEEIQQTIPLPSGDWSAGEFTVVDVEGTAFPSALIPSIVELQHRAALDVPHGNLSVAPAQWDEHRLAQQSERILKTGTKLFTVLFAEGSTVAAMSSIAIPPGSNPDIAEQGLTIVHPDFRGRGLGTAVKLAGLSLLSRCHPEIQRVATSNAVDNHAMLAINRSIGATEIARTTLWEKKL”: “failed”.
